Measured values reported in US20240116985A1, “STAPLED PEPTIDES AND METHODS THEREOF” (priority 2020, published 2024).
Starred links: 1 amine or outer side, 2 acyl side, 3 side chain; linkers in the order of their positions; H or OH if unused. Positions of bridges follow the written chain, without caps; N, C: chain ends. Non-standard residues stand in square brackets, D forms with d. Primed or numbered codes have the meaning given here. *: point of attachment. PyrS2″ = (S)-3-amino-1-((pent-4-en-1-yloxy)carbonyl)pyrrolidine-3-carboxylic acid (stapling residue), C=CCCCOC(=O)N1CC[C@@](N[*:1])(C(=O)[*:2])C1; B5(4) = 2,2-bis(4-pentenyl)glycine = 2-amino-2-(pent-4-en-1-yl)hept-6-enoic acid (stitching residue), C=CCCCC(CCCC=C)(N[*:1])C(=O)[*:2]; B5(5) = 2,2-bis(4-pentenyl)glycine, 2-amino-2-(pent-4-en-1-yl)hept-6-enoic acid (stitching residue), C=CCCCC(CCCC=C)(N[*:1])C(=O)[*:2]; B5(33) = 2-amino-2-(pent-4-en-1-yl)hept-6-enoic acid (bis-pentenylglycine, two olefin side chains), C=CCCCC(CCCC=C)(N[*:1])C(=O)[*:2]; B5(20) = 2-amino-2-(pent-4-en-1-yl)hept-6-enoic acid = bis(4-pentenyl)glycine, stitching residue, C=CCCCC(CCCC=C)(N[*:1])C(=O)[*:2]; PyrS2 = (S)-3-amino-1-((pent-4-en-1-yloxy)carbonyl)pyrrolidine-3-carboxylic acid, C=CCCCOC(=O)N1CC[C@@](N[*:1])(C(=O)[*:2])C1; (Me2diaminobutane)GlnR = N5-methyl-N5-(4-(methylamino)butyl)-L-glutamine, CN(CCCCN(C)[*:3])C(=O)CC[C@H](N[*:1])C(=O)[*:2]; 5IndA = (S)-2-amino-3-(2,3-dihydro-1H-inden-5-yl)propanoic acid, O=C([C@H](Cc1ccc2c(c1)CCC2)N[*:1])[*:2]; (NMe2)GlnR″ = [NMe2]GlnR: N5,N5-dimethyl-L-glutamine, CN(C)C(=O)CC[C@H](N[*:1])C(=O)[*:2]; B5(3) = 2,2-bis(4-pentenyl)glycine (stitching residue), C=CCCCC(CCCC=C)(N[*:1])C(=O)[*:2]; S10 = (S)-2-amino-2-methyldodec-11-enoic acid, C=CCCCCCCCC[C@](C)(N[*:1])C(=O)[*:2]; (NMe2)GlnR = N5,N5-dimethyl-L-glutamine, CN(C)C(=O)CC[C@H](N[*:1])C(=O)[*:2]; mPEG2 = N-terminal 3-(2-methoxyethoxy)propanoic acid, COCCOCCC(=O)*; Phe(3-COOH) = N[C@@H](Cc1cccc(C(=O)O)c1)C(=O)O; Phe(2-CF3) = N[C@@H](Cc1ccccc1C(F)(F)F)C(=O)O; Ala(4-thiazolyl) = N[C@@H](Cc1cscn1)C(=O)O; Phe(3,4-Me2) = Cc1ccc(C[C@H](N)C(=O)O)cc1C; Abu(4,4,4-F3) = N[C@@H](CC(F)(F)F)C(=O)O; Phe(3-Br) = N[C@@H](Cc1cccc(Br)c1)C(=O)O; Phe(2-Cl) = N[C@@H](Cc1ccccc1Cl)C(=O)O; 1Nal = N[C@@H](Cc1cccc2ccccc12)C(=O)O; 2Nal = N[C@@H](Cc1ccc2ccccc2c1)C(=O)O; Abu(4,4-F2) = N[C@@H](CC(F)F)C(=O)O; Bta = N[C@@H](Cc1csc2ccccc12)C(=O)O; Isobutyloxycarbonyl = CC(C)COC(=O)*; αAllylPro = C=CC[C@@]1(C(=O)O)CCCN1; tBuAla = CC(C)(C)C[C@H](N)C(=O)O; 3Thi = N[C@@H](Cc1ccsc1)C(=O)O; S8 = C=CCCCCCC[C@](C)(N)C(=O)O; Thr(ol) = C[C@@H](O)[C@H](N)CO; Propanoyl(3-OMe) = COCCC(=O)*; Leu(ol) = CC(C)C[C@H](N)CO; 2F3MeF″ = Phe derivative; Octanoyl = CCCCCCCC(=O)*; Dab = NCC[C@H](N)C(=O)O; Abu = CC[C@H](N)C(=O)O; Dap = NC[C@H](N)C(=O)O; Alaol = C[C@@H](CO)N*; Ms = CS(=O)(=O)*

B1: I-509 (peptide)
peptide: Ac-[αAllylPro]DA[B5(4)]DEAAFQ[S8]F[Bta][Abu]-NH2
modifications: staple 1-4, 4-11
B2: I-532 (peptide)
peptide: Ac-[αAllylPro]DA[B5(4)][Dab](Ms)EAAFN[S8]F[Bta]Q-NH2
modifications: staple 1-4, 4-11
B3: I-517 (peptide)
peptide: Ac-[αAllylPro]DI[B5(20)]DEAAFN[S8][3Thi][Bta]H-NH2
modifications: staple 1-4, 4-11
B4: I-504 (peptide)
peptide: Ac-[αAllylPro]D[Abu(4,4,4-F3)][B5(4)]DEAAFQ[S8]F[Bta]H-NH2
modifications: staple 1-4, 4-11
B5: I-531 (peptide)
peptide: Ac-[αAllylPro]DA[B5(4)][Dab](Ms)EAAFN[S8]F[Bta]Q-NH2
modifications: staple 1-4, 4-11
B6: I-529 (peptide)
peptide: Ac-[αAllylPro]DA[B5(4)][Dap](Ms)EAAFN[S8]F[Bta]Q-NH2
modifications: staple 1-4, 4-11
B7: I-503 (peptide)
peptide: Ac-[αAllylPro]D[Abu(4,4-F2)][B5(4)]DEAAFQ[S8]F[Bta]Q-NH2
modifications: staple 1-4, 4-11
B8: I-524 (peptide)
peptide: Ac-[αAllylPro]DA[B5(4)]DEAA[Ala(4-thiazolyl)]N[S8]F[Bta]Q-NH2
modifications: staple 1-4, 4-11
B9: I-530 (peptide)
peptide: Ac-[αAllylPro]DA[B5(4)][Dap](Ms)EAAFN[S8]F[Bta]Q-NH2
modifications: staple 1-4, 4-11
B10: I-2294 (peptide)
peptide: Ac-[αAllylPro]D[tBuAla][B5(4)]D[Phe(3-COOH)]QAFL[PyrS2][Phe(2-CF3)][Phe(3,4-Me2)]A-NH2
modifications: staple 1-4, 4-11
B11: I-2296 (peptide)
peptide: Ac-[αAllylPro]D[tBuAla][B5(4)]D[Phe(3-COOH)]QAFV[PyrS2][3Thi][5IndA]A-NH2
modifications: staple 1-4, 4-11
B12: I-2310 (peptide)
peptide: Ac-[αAllylPro]D[tBuAla][B5(4)]D[Phe(3-COOH)]QAFV[PyrS2″][3Thi][2Nal]A-NH2
modifications: staple 1-4, 4-11
B13: I-2299 (peptide)
peptide: Ac-[αAllylPro]D[tBuAla][B5(4)]D[Phe(3-COOH)][(NHEt)GlnR]AFL[PyrS2″][2F3MeF″][Bta][(NHEt)GlnR]-NH2
modifications: staple 1-4, 4-11
B14: I-2305 (peptide)
peptide: Isobutyloxycarbonyl-[αAllylPro]D[tBuAla][B5(4)]D[Phe(3-COOH)]AAFL[PyrS2″][Phe(2-Cl)][Bta]A-NH2
modifications: staple 1-4, 4-11
B15: I-2307 (peptide)
peptide: Ac-[αAllylPro]D[tBuAla][B5(4)]D[Phe(3-COOH)]AAFL[PyrS2″][3Thi][Phe(3-Br)]Q-NH2
modifications: staple 1-4, 4-11
B16: I-2298 (peptide)
peptide: Ac-[αAllylPro]D[tBuAla][B5(4)]D[Phe(3-COOH)]QAFL[PyrS2″][Phe(2-CF3)][5IndA]A-NH2
modifications: staple 1-4, 4-11
B17: I-2300 (peptide)
peptide: Ac-[αAllylPro]D[tBuAla][B5(4)]D[Phe(3-COOH)][(NMe2)GlnR″]AFL[PyrS2″][2F3MeF″][Bta][(NMe2)GlnR″]-NH2
modifications: staple 1-4, 4-11
B18: I-2302 (peptide)
peptide: Ac-[αAllylPro]D[tBuAla][B5(4)]D[Phe(3-COOH)][(NHEt)GlnR]AFV[PyrS2″][3Thi][Bta]A-NH2
modifications: staple 1-4, 4-11
B19: I-2312 (peptide)
peptide: Ac-[αAllylPro]D[tBuAla][B5(4)]D[Phe(3-COOH)]QAFV[PyrS2″][3Thi][RbMe2NapA]A-NH2
modifications: staple 1-4, 4-11
B20: I-2303 (peptide)
peptide: Ac-[αAllylPro]D[tBuAla][B5(4)]D[Phe(3-COOH)][(NMe2)GlnR]AFV[PyrS2″][3Thi][Bta]A-NH2
modifications: staple 1-4, 4-11
B21: I-2301 (peptide)
peptide: Ac-[αAllylPro]D[tBuAla][B5(4)]D[Phe(3-COOH)][(Me2diaminobutane)GlnR]AFV[PyrS2″][3Thi][Bta]A-NH2
modifications: staple 1-4, 4-11
B22: I-2314 (peptide)
peptide: Ac-[αAllylPro]D[tBuAla][B5(4)]D[Phe(3-COOH)]QAFV[PyrS2″][3Thi][SbMe2NapA]A-NH2
modifications: staple 1-4, 4-11
B23: I-1262 (peptide)
peptide: Ac-[αAllylPro]D[tBuAla][B5(33)]DDAAFT[S10][Phe(2-Cl)][Bta]T-NH2
modifications: staple 1-4, 4-11
B24: I-1249 (peptide)
peptide: Ac-[αAllylPro]D[tBuAla][B5(4)]DDAAFL[PyrS2″][Phe(2-Cl)][Bta][Thr(ol)]
modifications: staple 1-4, 4-11
B25: I-1255 (peptide)
peptide: mPEG2-[αAllylPro]D[tBuAla][B5(33)]DDAAFT[S8][Phe(2-Cl)][Bta]Q-NH2
modifications: staple 1-4, 4-11
B26: I-1265 (peptide)
peptide: Ac-[αAllylPro]D[tBuAla][B5(33)]DTALFT[PyrS2]F[Bta]S-NH2
modifications: staple 1-4, 4-11
B27: I-1267 (peptide)
peptide: Ac-[αAllylPro]D[tBuAla][B5(5)]DTAA[2Nal]T[PyrS2″]F[Bta]S-NH2
modifications: staple 1-4, 4-11
B28: I-1250 (peptide)
peptide: Ac-[αAllylPro]D[tBuAla][B5(4)]DDAAFL[PyrS2″][Phe(2-Cl)][Bta]-Alaol
modifications: staple 1-4, 4-11
B29: I-1251 (peptide)
peptide: Ac-[αAllylPro]D[tBuAla][B5(4)]DDAAFL[PyrS2″][Phe(2-Cl)][Bta][Leu(ol)]
modifications: staple 1-4, 4-11
B30: I-1254 (peptide)
peptide: Octanoyl-[αAllylPro]D[tBuAla][B5(4)]DDAAFT[S8][Phe(2-Cl)][Bta]Q-NH2
modifications: staple 1-4, 4-11
B31: I-1260 (peptide)
peptide: XDXXDDAAFTXFXQ
modifications: not fully specified; MeSO2-PL3-Asp-Npg-B5-Asp-Asp-Ala-Ala-Phe-Thr-S8-2C1F-BztA-Gln-NH2; stapled by olefin metathesis (PL3-B5 and B5-S8)
B32: I-1264 (peptide)
peptide: Ac-[αAllylPro]D[tBuAla][B5(33)]DTLAFT[PyrS2]F[Bta]S-NH2
modifications: staple 1-4, 4-11
B33: I-1266 (peptide)
peptide: Ac-[αAllylPro]D[tBuAla][B5(5)]DTAA[1Nal]T[PyrS2″]F[Bta]S-NH2
modifications: staple 1-4, 4-11
B34: I-1261 (peptide)
peptide: {Propanoyl(3-OMe)}-[αAllylPro]D[tBuAla][B5(33)]DDAAFT[S8][Phe(2-Cl)][Bta]Q-NH2
modifications: staple 1-4, 4-11
B35: I-1263 (peptide)
peptide: Ac-[αAllylPro]D[tBuAla][B5(33)]DTAAFT[PyrS2]F[Bta]S-NH2
modifications: staple 1-4, 4-11

Each binder was assayed against full-length beta-Catenin (Uniprot ID P35222) (Homo sapiens (Human)) (UniProt P35222) (assay: FP competition: full-length beta-catenin 10 nM + 5FAM-TCF4(10-53) 10 nM).
Target sequence in this assay (P35222 whole entry, one chain of several): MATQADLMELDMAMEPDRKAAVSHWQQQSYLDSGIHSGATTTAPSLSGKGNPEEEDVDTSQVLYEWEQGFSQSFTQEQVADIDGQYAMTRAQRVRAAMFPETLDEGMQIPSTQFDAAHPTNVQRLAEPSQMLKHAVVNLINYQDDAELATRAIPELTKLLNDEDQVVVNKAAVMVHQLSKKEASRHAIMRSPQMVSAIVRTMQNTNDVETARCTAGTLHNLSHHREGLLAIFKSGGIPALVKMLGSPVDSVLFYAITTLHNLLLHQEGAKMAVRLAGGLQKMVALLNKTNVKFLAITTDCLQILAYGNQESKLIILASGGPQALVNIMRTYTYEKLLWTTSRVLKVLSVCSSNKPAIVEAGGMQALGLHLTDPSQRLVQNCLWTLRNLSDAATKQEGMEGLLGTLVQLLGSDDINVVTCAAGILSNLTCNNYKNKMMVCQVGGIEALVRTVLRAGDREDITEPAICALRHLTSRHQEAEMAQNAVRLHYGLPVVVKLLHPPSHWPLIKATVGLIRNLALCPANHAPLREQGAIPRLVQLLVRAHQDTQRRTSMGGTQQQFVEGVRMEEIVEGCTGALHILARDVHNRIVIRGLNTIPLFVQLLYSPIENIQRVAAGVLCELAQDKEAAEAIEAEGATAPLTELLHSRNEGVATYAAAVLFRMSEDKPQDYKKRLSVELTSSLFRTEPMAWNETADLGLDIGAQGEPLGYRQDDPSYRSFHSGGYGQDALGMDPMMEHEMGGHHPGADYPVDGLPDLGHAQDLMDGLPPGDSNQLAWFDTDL

IC50 [µM] | Binder
0.099 | B1
5 | B2
0.015 | B3
0.065 | B4
5 | B5
5 | B6
0.084 | B7
2.55 | B8
5 | B9

What follows are binders tested against full-length beta-Catenin (Uniprot ID P35222) (Homo sapiens (Human)) (UniProt P35222) (assay: fluorescence polarization competition; 10 nM full-length beta-catenin + 10 nM 5FAM-TCF4(10-53) probe).
Target sequence in this assay (P35222 whole entry, one chain of several): as above

EC50 [µM] | Binder
0.099 | B1
5 | B2
0.015 | B3
0.065 | B4
5 | B5
5 | B6
2.55 | B8
5 | B9

What follows are binders tested against full-length beta-Catenin (Uniprot ID P35222) (Homo sapiens (Human)) (UniProt P35222) (assay: fluorescence polarization competition against 5FAM-TCF4(10-53), full-length beta-catenin).
Target sequence in this assay (P35222 whole entry, one chain of several): as above

IC50 [µM] | Binder
0.016 | B10
0.006 | B11
0.018 | B12
0.007 | B13
0.065 | B14
0.016 | B15
0.008 | B16
0.006 | B17
0.005 | B18
0.005 | B19
0.005 | B20
0.005 | B21
0.048 | B22

The binders below were run against full-length beta-Catenin (Uniprot ID P35222) (Homo sapiens (Human)) (UniProt P35222) (assay: fluorescence polarization competition, competitor 5FAM-TCF4 10-53).
Target sequence in this assay (P35222 2-781 limits assumed): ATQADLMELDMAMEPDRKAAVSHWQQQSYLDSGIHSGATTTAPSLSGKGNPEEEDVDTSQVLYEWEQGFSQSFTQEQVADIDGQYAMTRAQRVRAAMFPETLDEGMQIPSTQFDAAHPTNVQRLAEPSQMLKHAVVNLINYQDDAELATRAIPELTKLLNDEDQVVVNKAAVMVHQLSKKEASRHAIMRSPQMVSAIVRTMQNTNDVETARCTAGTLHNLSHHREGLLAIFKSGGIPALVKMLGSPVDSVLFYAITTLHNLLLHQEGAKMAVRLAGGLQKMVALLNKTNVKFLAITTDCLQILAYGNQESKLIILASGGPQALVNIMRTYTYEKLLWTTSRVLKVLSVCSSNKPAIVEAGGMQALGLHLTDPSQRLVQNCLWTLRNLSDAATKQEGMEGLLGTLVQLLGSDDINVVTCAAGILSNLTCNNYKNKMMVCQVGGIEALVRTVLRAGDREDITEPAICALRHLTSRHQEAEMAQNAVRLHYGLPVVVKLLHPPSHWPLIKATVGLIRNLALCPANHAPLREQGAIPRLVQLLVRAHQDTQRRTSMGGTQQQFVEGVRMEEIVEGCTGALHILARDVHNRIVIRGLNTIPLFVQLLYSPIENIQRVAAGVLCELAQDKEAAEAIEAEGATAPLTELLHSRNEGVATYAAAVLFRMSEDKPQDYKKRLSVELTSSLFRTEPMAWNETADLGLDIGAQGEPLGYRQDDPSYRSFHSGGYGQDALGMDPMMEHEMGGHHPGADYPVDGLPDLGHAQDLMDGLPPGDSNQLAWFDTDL

IC50 [µM] | Binder
1.12 | B23
0.017 | B24
0.032 | B25
0.152 | B26
0.181 | B27
0.031 | B28
1.94 | B29
0.53 | B30
0.023 | B31
0.157 | B32
0.755 | B33
0.031 | B34
0.043 | B35

What follows are binders tested against Bcat-Halo (UniProt P35222) (assay: NanoBRET Abs IC50, HEK293 cells, Bcat-Halo / TCF4-Luc).
Bcat-Halo, sequence (P35222 whole entry): as the sequence (P35222 whole entry, one chain of several) above

IC50 [µM] | Binder
4.6 | B10
5.1 | B11
8.9 | B12
5.2 | B13
> 20 | B14
8.9 | B15
4.6 | B16
1.2 | B17
2.5 | B18
5.2 | B19
1.2 | B20
> 20 | B21
> 20 | B22

These binders were tested against full-length beta-Catenin (Uniprot ID P35222) (Homo sapiens (Human)) (UniProt P35222) (assay: fluorescence polarization competition; displacement of 5FAM-TCF4(10-53) from full-length beta-catenin).
Target sequence in this assay (P35222 whole entry, one chain of several): as above

EC50 [µM] | Binder
0.084 | B7

What follows are binders tested against full-length beta-Catenin (Uniprot ID P35222) (Homo sapiens (Human)) (UniProt P35222) (assay: fluorescence polarization competition; full-length beta-catenin + 5FAM-TCF4(10-53) probe).
Target sequence in this assay (P35222 whole entry, one chain of several): as above

EC50 [µM] | Binder
1.12 | B23
0.152 | B26
0.181 | B27
0.023 | B31
0.157 | B32
0.755 | B33
0.031 | B34
0.043 | B35

What follows are binders tested against full-length beta-Catenin (Uniprot ID P35222) (Homo sapiens (Human)) (UniProt P35222) (assay: FP competition: displacement of 5FAM-TCF4(10-53) from full-length beta-catenin).
Target sequence in this assay (P35222 whole entry, one chain of several): as above

EC50 [µM] | Binder
0.017 | B24
0.032 | B25
0.031 | B28
1.94 | B29
0.53 | B30
